Assay results from patent publication US20240287154A1, “MC3R AGONIST PEPTIDES” (The Regents of the University of Michigan, priority 2021, published 2024).
Non-standard residues stand in square brackets, D forms with d. d(αMeW) = C[C@@](N)(Cc1c[nH]c2ccccc12)C(=O)O; Phe(4-F) = N[C@@H](Cc1ccc(F)cc1)C(=O)O; Phe(4-I) = N[C@@H](Cc1ccc(I)cc1)C(=O)O; 2Nal = N[C@@H](Cc1ccc2ccccc2c1)C(=O)O; d2Nal = N[C@H](Cc1ccc2ccccc2c1)C(=O)O; dTic = O=C(O)[C@H]1Cc2ccccc2CN1; Nle = CCCC[C@H](N)C(=O)O

B1: CTX-1502 (peptide)
peptide: Ac-[Nle][dA]H[Phe(4-I)]R[d2Nal]DRFG-OH
SMILES: CCCC[C@H](NC(C)=O)C(=O)N[C@H](C)C(=O)N[C@@H](Cc1c[nH]cn1)C(=O)N[C@@H](Cc1ccc(I)cc1)C(=O)N[C@@H](CCCNC(=N)N)C(=O)N[C@H](Cc1ccc2ccccc2c1)C(=O)N[C@@H](CC(=O)O)C(=O)N[C@@H](CCCNC(=N)N)C(=O)N[C@@H](Cc1ccccc1)C(=O)NCC(=O)O
B2: CTX-1503 (peptide)
peptide: Ac-[Nle][dA]H[Phe(4-I)]R[dF]DRFG-OH
SMILES: CCCC[C@H](NC(C)=O)C(=O)N[C@H](C)C(=O)N[C@@H](Cc1c[nH]cn1)C(=O)N[C@@H](Cc1ccc(I)cc1)C(=O)N[C@@H](CCCNC(=N)N)C(=O)N[C@H](Cc1ccccc1)C(=O)N[C@@H](CC(=O)O)C(=O)N[C@@H](CCCNC(=N)N)C(=O)N[C@@H](Cc1ccccc1)C(=O)NCC(=O)O
B3: CTX-1506 (peptide)
peptide: Ac-[Nle][dA]P[Phe(4-I)]R[dF]DRFG-OH
SMILES: CCCC[C@H](NC(C)=O)C(=O)N[C@H](C)C(=O)N1CCC[C@H]1C(=O)N[C@@H](Cc1ccc(I)cc1)C(=O)N[C@@H](CCCNC(=N)N)C(=O)N[C@H](Cc1ccccc1)C(=O)N[C@@H](CC(=O)O)C(=O)N[C@@H](CCCNC(=N)N)C(=O)N[C@@H](Cc1ccccc1)C(=O)NCC(=O)O
B4: CTX-1510 (peptide)
peptide: Ac-[Nle][dA]HFR[d(αMeW)]DRFG-OH
SMILES: CCCC[C@H](NC(C)=O)C(=O)N[C@H](C)C(=O)N[C@@H](Cc1c[nH]cn1)C(=O)N[C@@H](Cc1ccccc1)C(=O)N[C@@H](CCCNC(=N)N)C(=O)N[C@](C)(Cc1c[nH]c2ccccc12)C(=O)N[C@@H](CC(=O)O)C(=O)N[C@@H](CCCNC(=N)N)C(=O)N[C@@H](Cc1ccccc1)C(=O)NCC(=O)O
B5: CTX-1512 (peptide)
peptide: Ac-[Nle][dA]H[2Nal]R[dW]DRFG-OH
SMILES: CCCC[C@H](NC(C)=O)C(=O)N[C@H](C)C(=O)N[C@@H](Cc1c[nH]cn1)C(=O)N[C@@H](Cc1ccc2ccccc2c1)C(=O)N[C@@H](CCCNC(=N)N)C(=O)N[C@H](Cc1c[nH]c2ccccc12)C(=O)N[C@@H](CC(=O)O)C(=O)N[C@@H](CCCNC(=N)N)C(=O)N[C@@H](Cc1ccccc1)C(=O)NCC(=O)O
B6: CTX-1518 (peptide)
peptide: Ac-[Nle][dA]H[Phe(4-F)]R[dW]DRFG-OH
SMILES: CCCC[C@H](NC(C)=O)C(=O)N[C@H](C)C(=O)N[C@@H](Cc1c[nH]cn1)C(=O)N[C@@H](Cc1ccc(F)cc1)C(=O)N[C@@H](CCCNC(=N)N)C(=O)N[C@H](Cc1c[nH]c2ccccc12)C(=O)N[C@@H](CC(=O)O)C(=O)N[C@@H](CCCNC(=N)N)C(=O)N[C@@H](Cc1ccccc1)C(=O)NCC(=O)O
B7: CTX-1523 (peptide)
peptide: Ac-[Nle][dA]HFK[dW]DRFG-OH
SMILES: CCCC[C@H](NC(C)=O)C(=O)N[C@H](C)C(=O)N[C@@H](Cc1c[nH]cn1)C(=O)N[C@@H](Cc1ccccc1)C(=O)N[C@@H](CCCCN)C(=O)N[C@H](Cc1c[nH]c2ccccc12)C(=O)N[C@@H](CC(=O)O)C(=O)N[C@@H](CCCNC(=N)N)C(=O)N[C@@H](Cc1ccccc1)C(=O)NCC(=O)O
B8: CTX-1528 (peptide)
peptide: Ac-[Nle][dA]HFR[dW]ARFG-OH
SMILES: CCCC[C@H](NC(C)=O)C(=O)N[C@H](C)C(=O)N[C@@H](Cc1c[nH]cn1)C(=O)N[C@@H](Cc1ccccc1)C(=O)N[C@@H](CCCNC(=N)N)C(=O)N[C@H](Cc1c[nH]c2ccccc12)C(=O)N[C@@H](C)C(=O)N[C@@H](CCCNC(=N)N)C(=O)N[C@@H](Cc1ccccc1)C(=O)NCC(=O)O
B9: CTX-1529 (peptide)
peptide: Ac-[Nle][dA]HFR[dW]FRFG-OH
SMILES: CCCC[C@H](NC(C)=O)C(=O)N[C@H](C)C(=O)N[C@@H](Cc1c[nH]cn1)C(=O)N[C@@H](Cc1ccccc1)C(=O)N[C@@H](CCCNC(=N)N)C(=O)N[C@H](Cc1c[nH]c2ccccc12)C(=O)N[C@@H](Cc1ccccc1)C(=O)N[C@@H](CCCNC(=N)N)C(=O)N[C@@H](Cc1ccccc1)C(=O)NCC(=O)O
B10: CTX-1530 (peptide)
peptide: Ac-[Nle][dA]HFR[dW][dF]RFG-OH
SMILES: CCCC[C@H](NC(C)=O)C(=O)N[C@H](C)C(=O)N[C@@H](Cc1c[nH]cn1)C(=O)N[C@@H](Cc1ccccc1)C(=O)N[C@@H](CCCNC(=N)N)C(=O)N[C@H](Cc1c[nH]c2ccccc12)C(=O)N[C@H](Cc1ccccc1)C(=O)N[C@@H](CCCNC(=N)N)C(=O)N[C@@H](Cc1ccccc1)C(=O)NCC(=O)O
B11: CTX-1531 (peptide)
peptide: Ac-[Nle][dA]HFR[dW][dF]RFG-OH
SMILES: CCCC[C@H](NC(C)=O)C(=O)N[C@H](C)C(=O)N[C@@H](Cc1c[nH]cn1)C(=O)N[C@@H](Cc1ccccc1)C(=O)N[C@@H](CCCNC(=N)N)C(=O)N[C@H](Cc1c[nH]c2ccccc12)C(=O)N[C@H](Cc1ccccc1)C(=O)N[C@@H](CCCNC(=N)N)C(=O)N[C@@H](Cc1ccccc1)C(=O)NCC(=O)O
B12: CTX-1532 (peptide)
peptide: Ac-[Nle][dA]HFR[dW][Nle]RFG-OH
SMILES: CCCC[C@H](NC(C)=O)C(=O)N[C@H](C)C(=O)N[C@@H](Cc1c[nH]cn1)C(=O)N[C@@H](Cc1ccccc1)C(=O)N[C@@H](CCCNC(=N)N)C(=O)N[C@H](Cc1c[nH]c2ccccc12)C(=O)N[C@@H](CCCC)C(=O)N[C@@H](CCCNC(=N)N)C(=O)N[C@@H](Cc1ccccc1)C(=O)NCC(=O)O
B13: CTX-1533 (peptide)
peptide: Ac-[Nle][dA]HFR[dW]KRFG-OH
SMILES: CCCC[C@H](NC(C)=O)C(=O)N[C@H](C)C(=O)N[C@@H](Cc1c[nH]cn1)C(=O)N[C@@H](Cc1ccccc1)C(=O)N[C@@H](CCCNC(=N)N)C(=O)N[C@H](Cc1c[nH]c2ccccc12)C(=O)N[C@@H](CCCCN)C(=O)N[C@@H](CCCNC(=N)N)C(=O)N[C@@H](Cc1ccccc1)C(=O)NCC(=O)O

Molecular target: human MC3R (human, UniProt P41968 1-323)
Sequence (P41968 whole entry): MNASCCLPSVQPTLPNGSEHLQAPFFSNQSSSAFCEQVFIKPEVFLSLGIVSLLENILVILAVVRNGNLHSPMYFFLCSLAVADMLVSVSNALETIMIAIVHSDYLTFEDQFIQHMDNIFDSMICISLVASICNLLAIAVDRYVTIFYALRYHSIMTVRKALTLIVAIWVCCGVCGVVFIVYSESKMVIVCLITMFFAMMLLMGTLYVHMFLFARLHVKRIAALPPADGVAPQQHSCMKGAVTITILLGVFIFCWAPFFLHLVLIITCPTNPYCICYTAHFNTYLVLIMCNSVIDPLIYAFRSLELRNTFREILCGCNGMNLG
Experiment: cell-based or functional assay

Going from B1 to B2, the “MC3R cAMP (EC50)” value rises from 6.7 nM to 124 nM (19-fold).

First: B4
Second: B5
The “MC3R cAMP (EC50)” value of the first is 14-fold higher: 181 nM for the first, 13.1 nM for the second.

Going from B6 to YVXXHFRWDRFG (Nle at 3; D-Abu at 4; D-Trp at 8) [CTX-1135], the “MC3R cAMP (EC50)” value falls from 1.9 nM to 1 nM (1.9-fold).

Going from B7 to B8, the “MC3R cAMP (EC50)” value falls from 41.7 nM to 1.9 nM (22-fold).

Going from B9 to B10, the “MC3R cAMP (EC50)” value rises from 4.8 nM to 289 nM (60-fold).

First: B11
Second: B12
The “MC3R cAMP (EC50)” value of the first is 35-fold higher: 356 nM for the first, 10.3 nM for the second.

B13 was tested, and the “MC3R cAMP (EC50)” value was 14.2 nM.

Compared with B1, B2 is higher in “MC3R selectivity (relative to MC4R)” value: 184 for the first, 214 for the second.

Ac-[Nle][dA]H[Phe(4-I)]R[dTic]DRFG-OH [CTX-1504] and B3 are the same in “MC3R selectivity (relative to MC4R)” value: 1 for the first, 1 for the second.

Going from B4 to B5, the “MC3R selectivity (relative to MC4R)” value rises from 23 to 804.

First: B6
Second: YVXXHFRWDRFG (Nle at 3; D-Abu at 4; D-Trp at 8) [CTX-1135]
The “MC3R selectivity (relative to MC4R)” value of the first is higher: 1560 for the first, 667 for the second.

Going from B7 to B8, the “MC3R selectivity (relative to MC4R)” value falls from 5320 to 182.

First: B9
Second: B12
The “MC3R selectivity (relative to MC4R)” value of the first is lower: 82 for the first, 184 for the second.

B13 was tested, and the “MC3R selectivity (relative to MC4R)” value was 314.
